Experimental data as given in US20230095004 (Aptitude Medical Systems, Inc., published 2023).

T1: VEGF-165 (VEGF-A) (Homo sapiens)
T1 chain: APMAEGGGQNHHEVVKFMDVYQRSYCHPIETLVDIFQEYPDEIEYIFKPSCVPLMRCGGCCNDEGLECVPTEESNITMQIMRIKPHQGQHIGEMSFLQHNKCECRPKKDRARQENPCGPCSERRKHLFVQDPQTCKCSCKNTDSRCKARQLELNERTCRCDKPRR

B1: AMSB107.1 (ssRNA)
RNA: UGCCAGUGAGUCGGAUCUCCGCAUAGAUAAGCCAACAAACGUACAUUCUCUGUUAGUAUUUUCUGCG
modifications: 2'-F all nucleotides
B2: AMSB107.16 (ssRNA)
RNA: UGCAUGCAUUUUACCAGUGAGUCGGAUCUCUUUCGCAUAGAUAAGCCAACAAACGUACAUUCUCUGUUAGUAUUUUCUGCG
modifications: 2'-F all nucleotides
B3: AMSB107.7 (ssRNA)
RNA: UGCAUGCACAGUGAGUCGGAUCUCCGCAUAGAUAAGCCAACAAACGUACAUUCUCUGUUAGUAUUUUCUGCG
modifications: 2'-F all nucleotides
B4: AMS0433.11 (ssRNA)
RNA: CACAGAGAACUGUGCCUAGCAUUUUGCCAGUGAGUCGGAUCUCCGCAUAUCUGCG
modifications: 2'-F all nucleotides
B5: AMSB107.14 (ssRNA)
RNA: UGCACUGCAUUUUACCAGUGAGUCGGAUCUCCGCAUAGAUAAGCCAACAAACGUACAUUCUCUGUUAGUAUUUUCUGCG
modifications: 2'-F all nucleotides
B6: AMS0433.1 (ssRNA)
RNA: ACCCUUGCUUGCGUAGCAUUUUACCAGUGAGUCGGAUCUCCGCAUAUCUGCG
modifications: 2'-F all nucleotides
B7: AMS0433.4 (ssRNA)
RNA: ACCCUUGCUUGCGCAGCAUUCUGCCAGUGAGUCGGAUCUCCGCAUAUCUGCG
modifications: 2'-F all nucleotides
B8: AMS0433.3 (ssRNA)
RNA: ACCCUUGCUUGCGUAGCAUUCUGCCAGUGAGUCGGAUCUCCGCAUAUCUGCG
modifications: 2'-F all nucleotides
B9: AMSB107.6 (ssRNA)
RNA: UGCAUGCAACCAGUGAGUCGGAUCUCCGCAUAGAUAAGCCAACAAACGUACAUUCUCUGUUAGUAUUUUCUGCG
modifications: 2'-F all nucleotides
B10: AMSB107.4 (ssRNA)
RNA: GCAUGCUUUUACCAGUGAGUCGGAUCUCCGCAUAGAUAAGCCAACAAACGUACAUUCUCUGUUAGUAUUUUCUGCG
modifications: 2'-F all nucleotides
B11: AMSB107.9 (ssRNA)
RNA: UGCAUGCAUUACCAGUGAGUCGGAUCUCCGCAUAGAUAAGCCAACAAACGUACAUUCUCUGUUAGUAUUUUCUGCG
modifications: 2'-F all nucleotides
B12: AMSB107.8 (ssRNA)
RNA: UUUUGCAUGCAUUUUACCAGUGAGUCGGAUCUCCGCAUAGAUAAGCCAACAAACGUACAUUCUCUGUUAGUAUUUUCUGCG
modifications: 2'-F all nucleotides
B13: AMSB107.2 (ssRNA)
RNA: UGCCAGUGAGUCGGAUCUCCACAGUAGAUAAGCCAACAAACGUACAUUCUCUGUUAGUAUUUUCCUGUG
modifications: 2'-F all nucleotides
B14: AMS0433.5 (ssRNA)
RNA: CACCAUGCUUGCGUAGCAUCAUCCAGUGAGUCGGAUCUCCGCAUAUCUGCG
modifications: 2'-F all nucleotides
B15: AMSB107.0 (ssRNA)
RNA: ACCCUUGCUUGCGUAGCAUUUUACCAGUGAGUCGGAUCUCCGCAUAGAUAAGCCAACAAACGUACAUUCUCUGUUAGUAUUUUCUGCG
modifications: 2'-F all nucleotides
B16: AMSB107.5 (ssRNA)
RNA: AUGCAUGCAUUUUUACCAGUGAGUCGGAUCUCCGCAUAGAUAAGCCAACAAACGUACAUUCUCUGUUAGUAUUUUCUGCG
modifications: 2'-F all nucleotides
B17: AMSB107.10 (ssRNA)
RNA: UGCAUGCAUUUUUUACCAGUGAGUCGGAUCUCCGCAUAGAUAAGCCAACAAACGUACAUUCUCUGUUAGUAUUUUCUGCG
modifications: 2'-F all nucleotides
B18: AMSB107.17 (ssRNA)
RNA: GCUGUACAGCUUUUACCAGUGAGUCGGAUCUCCGCAUAGAUAAGCCAACAAACGUACAUUCUCUGUUAGUAUUUUCUGCG
modifications: 2'-F all nucleotides
B19: AMSB107.13 (ssRNA)
RNA: CCGGUACCGGUUUUACCAGUGAGUCGGAUCUCCGCAUAGAUAAGCCAACAAACGUACAUUCUCUGUUAGUAUUUUCUGCG
modifications: 2'-F all nucleotides
B20: AMSB107.15 (ssRNA)
RNA: UGCAUCUGCAUUUUACCAGUGAGUCGGAUCUCCGCAUAGAUAAGCCAACAAACGUACAUUCUCUGUUAGUAUUUUCUGCG
modifications: 2'-F all nucleotides
B21: AMSB107.11 (ssRNA)
RNA: UGCAUGCAUUUUCCAGUGAGUCGGAUCUCCGCAUAGAUAAGCCAACAAACGUACAUUCUCUGUUAGUAUUUUCUGCG
modifications: 2'-F all nucleotides
B22: AMS0433.13 (ssRNA)
RNA: UUUUGUGCUUGCGUAGCAACCCUCCAGUGAGUCGGAUCUCCGCAUAUCUGCG
modifications: 2'-F all nucleotides
B23: AMSB108.0 (ssRNA)
RNA: CGCAUAGAUAAGCCAACAAACGUACAUUCUCUGUUAGUAUUUUCUGCGUGCCAGUGAGUCGGAUCUCCACAGUUCUCUGUG
modifications: 2'-F all nucleotides
B24: AMSB107 (ssRNA)
RNA: UGCAUGCAUUUUACCAGUGAGUCGGAUCUCCGCAUAGAUAAGCCAACAAACGUACAUUCUCUGUUAGUAUUUUCUGCG
modifications: 2'-F all nucleotides
B25: AMSB107.20 (ssRNA)
RNA: UGCAUGCAUUUUACCAGUGAGUCGGAUCUCCGCAUAGAUAAGCCAACAAACGUACAUUCUCUGUUAGUAUUUUCUGCG
modifications: 2'-F; LNA in stem nucleotides as printed
B26: AMSB107.19 (ssRNA)
RNA: UGCAUGCAUUUUACCAGUGAGUCGGAUCUCCGCAUAGAUAAGCCAACAAACGUACAUUCUCUGUUAGUAUUUUCUGCG
modifications: 2'-F; LNA at selected positions of the VEGF consensus as printed
B27: AMSB107.18 (ssRNA)
RNA: UGCAUGCAUUUUACCAGUGAGUCGGAUCUCCGCAUAGAUAAGCCAACAAACGUACAUUCUCUGUUAGUAUUUUCUGCG
modifications: 2'-F; LNA at selected positions of the VEGF consensus as printed
B28: AMSB107.12 (ssRNA)
RNA: CUGUACAGUUUUACCAGUGAGUCGGAUCUCCGCAUAGAUAAGCCAACAAACGUACAUUCUCUGUUAGUAUUUUCUGCG
modifications: 2'-F all nucleotides
B29: AMSB107.21 (ssRNA)
RNA: UGCAUGCAUUUUACCAGUGAGUCGGAUCUCCGCAUAGAUAAGCCAACAAACGUACAUUCUCUGUUAGUAUUUUCUGCG
modifications: 2'-F; 2'-OMe in stem nucleotides (5' UGCAUGCA, internal CGCA, 3' UGCG)

What was measured:
VEGF-165 (VEGF-A) [1] = target: T1, VEGF-165 (VEGF-A); test: flow; PBSMCT, 37 C; conditions: tags: recombinant; chain copies: 2; label: biotin
VEGF-121 (VEGF-A) = VEGF-121 (VEGF-A) (Homo sapiens, UniProt P15692 SEQ:1-121); test: flow; PBSMCT, 37 C; conditions: tags: recombinant; chain copies: 2; label: biotin
Angiopoietin-2 (Ang2) = Angiopoietin-2 (Ang2) (Homo sapiens, UniProt O15123 O15123:19-496); test: flow; conditions: tags: His tag; R&D Systems 623-AN
VEGF-165 (VEGF-A) [2] = target: T1, VEGF-165 (VEGF-A); test: flow; conditions: tags: recombinant; chain copies: 2

Angiopoietin-2 (Ang2), sequence (O15123 19-496, one chain of several): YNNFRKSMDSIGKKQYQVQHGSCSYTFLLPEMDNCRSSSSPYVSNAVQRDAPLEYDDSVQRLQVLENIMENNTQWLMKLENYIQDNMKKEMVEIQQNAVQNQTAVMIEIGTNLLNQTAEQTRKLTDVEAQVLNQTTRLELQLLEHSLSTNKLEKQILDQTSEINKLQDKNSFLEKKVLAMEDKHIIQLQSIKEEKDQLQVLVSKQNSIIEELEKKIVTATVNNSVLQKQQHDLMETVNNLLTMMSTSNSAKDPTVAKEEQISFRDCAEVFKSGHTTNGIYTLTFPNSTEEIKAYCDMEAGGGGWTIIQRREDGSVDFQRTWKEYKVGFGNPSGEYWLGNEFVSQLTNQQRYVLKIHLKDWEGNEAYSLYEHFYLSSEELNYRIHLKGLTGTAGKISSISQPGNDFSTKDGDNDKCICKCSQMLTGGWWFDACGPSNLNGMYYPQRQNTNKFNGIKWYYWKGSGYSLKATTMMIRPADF

Binder | Kd (VEGF-165 (VEGF-A) [1]) | Kd (VEGF-121 (VEGF-A)) | Kd (Angiopoietin-2 (Ang2)) | Kd (VEGF-165 (VEGF-A) [2])
ACCCUUGCUUGCGUAGCAUUUUACCAGUGAGUCGGAUCUCUGCAUGCA (ssRNA, 2'-F all nucleotides) [AMS0433.15] | 7.34 nM | 9 nM |  | 
UGCCAGUGAGUCGGAUCUCCGCAUAUCUGCGCGCAUAUCUGCG (ssRNA, 2'-F all nucleotides) [AMS0433.2] | 8.42 nM | 11.4 nM |  | 
CGUAGCAUUUUGCCAGUGAGUCGGAUCUCCGCAUAUCUGCG (ssRNA, 2'-F all nucleotides) [AMS0433.8] | 8.2 nM | 11 nM |  | 
B1 |  |  | 0.885 nM | 13.9 nM
B2 |  |  | 0.08 nM | 
B3 |  |  | 0.085 nM | 
UGCACUGCAUUUUACCAGUGAGUCGGAUCUCCGCAUAUCUGCG (ssRNA, 2'-F all nucleotides) [AMS0433.17] | 0.359 nM | 0.475 nM |  | 
B4 | 16.4 nM | 23.2 nM |  | 
B5 |  |  | 0.928 nM | 0.643 nM
CCCCAUCUGCGAAGCAGUCAGCCAGUGAGUCGGAUCUCCGCAUAUCUGCG (ssRNA, 2'-F all nucleotides) [AMS0433.6] | 0.674 nM | 0.898 nM |  | 
UUUUGCAUGCAUUUUACCAGUGAGUCGGAUCUCCGCAUAUCUGCG (ssRNA, 2'-F all nucleotides) [AMS0433.20] | 0.039 nM | 0.045 nM |  | 
B6 | 0.666 nM | 1.12 nM |  | 
B7 | 0.76 nM | 1.09 nM |  | 
B8 | 0.837 nM | 0.921 nM |  | 
UUUUACCAGUGAGUCGGAUCUCUGCAUGCA (ssRNA, 2'-F all nucleotides) [AMS0433.16] | 6.65 nM | 10.4 nM |  | 
B9 |  |  | 0.074 nM | 2.34 nM
B10 |  |  | 0.237 nM | 0.225 nM
B11 |  |  | 0.15 nM | 0.151 nM
B12 |  |  | 0.095 nM | 0.048 nM
UGCCAGUGAGUCGGAUCUCCUGUGAGAACACAG (ssRNA, 2'-F all nucleotides) [AMS0433.10] | 8.47 nM | 11.4 nM |  | 
CACAGAGAACUGUGUGCCAGUGAGUCGGAUCUCCGCAUAUCUGCG (ssRNA, 2'-F all nucleotides) [AMS0433.7] | 9.76 nM | 13.8 nM |  | 

Binder | Kd (VEGF-165 (VEGF-A) [1]) | Kd (VEGF-121 (VEGF-A)) | Kd (Angiopoietin-2 (Ang2)) | Kd (VEGF-165 (VEGF-A) [2])
B13 |  |  | 0.82 nM | 12.9 nM
B14 | 0.739 nM | 1.19 nM |  | 
GCUGUACAGCUUUUACCAGUGAGUCGGAUCUCCGCAUAUCUGCG (ssRNA, 2'-F all nucleotides) [AMS0433.21] | 0.131 nM | 0.15 nM |  | 
CUGUACAGUUUUACCAGUGAGUCGGAUCUCCGCAUAUCUGCG (ssRNA, 2'-F all nucleotides) [AMS0433.19] | 0.097 nM | 0.162 nM |  | 
B15 |  |  | 0.222 nM | 1.29 nM
B16 |  |  | 0.096 nM | 0.052 nM
B17 |  |  | 0.089 nM | 0.051 nM
B18 |  |  | 0.086 nM | 0.198 nM
B19 |  |  | 0.089 nM | 0.05 nM
B20 |  |  | 0.778 nM | 0.765 nM
B21 |  |  | 0.095 nM | 0.057 nM
UGCAUCUGCAUUUUACCAGUGAGUCGGAUCUCCGCAUAUCUGCG (ssRNA, 2'-F all nucleotides) [AMS0433.18] | 3.81 nM | 5.73 nM |  | 
B22 | 8.3 nM | 9.47 nM |  | 
B23 |  |  | 0.52 nM | 15.7 nM
B24 |  |  | 0.087 nM | 0.054 nM
B25 |  |  | 0.253 nM | 0.234 nM
B26 |  |  | 0.083 nM | 
B27 |  |  | 0.079 nM | 0.608 nM
B28 |  |  | 0.227 nM | 0.606 nM
B29 |  |  | 0.083 nM | 0.052 nM
